± gives the standard deviation of the averaged measurements.
tested on: Saccharomyces cerevisiae; assay: protein stability index of tFT-peptide fusion (C-terminal peptide) (PSI (0-1 scale)); higher = more stable (slower turnover); details: genetic background: wild type; temperature: 30 C
Experimental: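 MPS profiling in S. cerevisiae of the yeast C-terminome library: the last 12 aa of each annotated ORF are fused to the C-terminus of a sfGFP-mCherry timer, after a GGGS linker. Cells are FACS-sorted into 8 mCherry/sfGFP bins and deep-sequenced. PSI runs from 0 (unstable) to 1 (stable); wild type and das1Δ backgrounds, two technical replicates each.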

Sequence | protein stability index
NADDPSYYHYLS [CUL3 C-terminal 12 aa] | 0.68 ± 0.01
NASEIYVKRKTG [DDL1 C-terminal 12 aa] | 0.204 ± 0.03
NASIFTVLSYCS [YEL020C-B C-terminal 12 aa] | 0.668 ± 0.02
NDDNFDDAQEQQ [SEC2 C-terminal 12 aa] | 0.7002 ± 0.0057
NDIFIPEQEHKQ [HPT1 C-terminal 12 aa] | 0.674 ± 0.029
NELSLRPATERI [YBL100W-A C-terminal 12 aa] | 0.711 ± 0.015
NEPEVQPEAAAN [PUS1 C-terminal 12 aa] | 0.69 ± 0.011
NESLNDYFTGIK [YBP1 C-terminal 12 aa] | 0.772 ± 0.16
NFAMLGLGPNWE [YUH1 C-terminal 12 aa] | 0.725 ± 0.057
NFWNTGSAIFMQ [YHR069C-A C-terminal 12 aa] | 0.719 ± 0.029
NGMWQKPEPGVS [YIL067C C-terminal 12 aa] | 0.706 ± 0.028
NGRYVDTDFDSM [LCB5 C-terminal 12 aa] | 0.659 ± 0.013
NGTMKRGGVKNK [HPC2 C-terminal 12 aa] | 0.6239 ± 0.0045
NHPSNDSGNEKN [HCM1 C-terminal 12 aa] | 0.656 ± 0.029
NHSSSGNKHDEL [MPD1 C-terminal 12 aa] | 0.686 ± 0.035
NIILNWIYPYQR [COX18 C-terminal 12 aa] | 0.778 ± 0.076
NILFVMKEGRIY [YJL213W C-terminal 12 aa] | 0.711 ± 0.056
NIREARYEQQLK [CTF4 C-terminal 12 aa] | 0.689 ± 0.03
NIYNPMDEEENQ [TFB5 C-terminal 12 aa] | 0.683 ± 0.032
NLEATNNKKPPL [DAD4 C-terminal 12 aa] | 0.6968 ± 0.00081
NLMEMFTKRDRS [ROD1 C-terminal 12 aa] | 0.713 ± 0.033

Sequence | protein stability index
NLNQHVKTHASL [COM2 C-terminal 12 aa] | 0.681 ± 0.029
NMRFFYRLYVKN [BMT6 C-terminal 12 aa] | 0.45 ± 0.0084
NNFCALYNLSNP [RPN14 C-terminal 12 aa] | 0.6867 ± 0.0038
NNTFLDVQAKSN [IMP1 C-terminal 12 aa] | 0.712 ± 0.026
NRFGVLPDDVEE [ECM1 C-terminal 12 aa] | 0.704 ± 0.032
NSAAFLLMSLKS [STB3 C-terminal 12 aa] | 0.679 ± 0.011
NSAFSSASVTKP [YFR057W C-terminal 12 aa] | 0.682 ± 0.023
NSALSSTSTLAI [RIB1 C-terminal 12 aa] | 0.64 ± 0.04
NSLTQKYGTNNV [AAD15 C-terminal 12 aa] | 0.697 ± 0.029
NSSGEFQLESLF [MRI1 C-terminal 12 aa] | 0.698 ± 0.051
NSVDWIYSWGKN [MIC12 C-terminal 12 aa] | 0.74 ± 0.019
NTAGQKPTEYHY [APA2 C-terminal 12 aa] | 0.702 ± 0.019
NTEQAYSQPFRY [NVJ1 C-terminal 12 aa] | 0.722 ± 0.016
NTESSDKGAKIQ [SIN3 C-terminal 12 aa] | 0.664 ± 0.012
NTGFDPHLEDGM [TBF1 C-terminal 12 aa] | 0.691 ± 0.039
NTKHYNDTLLKQ [PHO11 C-terminal 12 aa] | 0.66 ± 0.0066
NTTRYNASLVNQ [DIA3 C-terminal 12 aa] | 0.712 ± 0.044
NVIIQDKTKKTQ [MCD4 C-terminal 12 aa] | 0.671 ± 0.011
NVKSSTQEKDSK [SGN1 C-terminal 12 aa] | 0.721 ± 0.053
NYEDLATTQAAS [BRN1 C-terminal 12 aa] | 0.68 ± 0.013
NYQKNEPVEFLE [MIN9 C-terminal 12 aa] | 0.656 ± 0.026

Sequence | protein stability index
PDVLRKLSHQNV [PNS1 C-terminal 12 aa] | 0.666 ± 0.025
PENGSLFEFDDN [SNU66 C-terminal 12 aa] | 0.6836 ± 0.0039
PFALPSNDKVFF [ATO2 C-terminal 12 aa] | 0.731 ± 0.0052
PFIFKTLEEQGL [CCP1 C-terminal 12 aa] | 0.691 ± 0.065
PFLEKLTLSGLL [CDC45 C-terminal 12 aa] | 0.694 ± 0.0088
PFPQKHRDNHLV [YOR053W C-terminal 12 aa] | 0.711 ± 0.012
PGPISFLPVIPI [YLR402W C-terminal 12 aa] | 0.744 ± 0.12
PHEAALPKPSFV [EDC2 C-terminal 12 aa] | 0.719 ± 0.038
PHSQNEILQYYL [NAT1 C-terminal 12 aa] | 0.722 ± 0.065
PHYKPRDGSQVE [SPT4 C-terminal 12 aa] | 0.65 ± 0.0097
PICIVGNFIPLS [RDS2 C-terminal 12 aa] | 0.722 ± 0.024
PICKLLEEEERG [ALG11 C-terminal 12 aa] | 0.699 ± 0.041
PINDRKYPNQCH [SPR1 C-terminal 12 aa] | 0.6948 ± 0.0011
PIQQSIAHINPP [LDS2 C-terminal 12 aa] | 0.6902 ± 0.0066
PKDLTSLLEWKE [CLA4 C-terminal 12 aa] | 0.681 ± 0.044
PLSKMEDQVFVF [CBR1 C-terminal 12 aa] | 0.657 ± 0.027
PQFKYRADFLII [APE3 C-terminal 12 aa] | 0.676 ± 0.037
PQRTKIQAFNTL [MRP1 C-terminal 12 aa] | 0.675 ± 0.029
PRGQDTEDHILE [PIF1 C-terminal 12 aa] | 0.692 ± 0.0098
PRLKAKKKVTKP [TFB4 C-terminal 12 aa] | 0.67 ± 0.012
PSENFATKAKLP [YDR187C C-terminal 12 aa] | 0.71 ± 0.025

Sequence | protein stability index
PSIQHDYTMEGW [ATG3 C-terminal 12 aa] | 0.6562 ± 0.0032
PSPYYVSEVPVS [Q0010 C-terminal 12 aa] | 0.6238 ± 0.0025
PSSEEDILHDEL [LHS1 C-terminal 12 aa] | 0.692 ± 0.034
PSVSRKTPDYFL [PPH21 C-terminal 12 aa] | 0.7 ± 0.032
PSYEMRYNKNER [YBL065W C-terminal 12 aa] | 0.715 ± 0.0081
PTQPTVSNKKNN [GPI14 C-terminal 12 aa] | 0.68 ± 0.022
PVHLQTVGLVDC [PIR5 C-terminal 12 aa] | 0.672 ± 0.058
PYKSTELRSVAN [YDL187C C-terminal 12 aa] | 0.742 ± 0.048
QAKFFYQDLMSL [YHL046W-A C-terminal 12 aa] | 0.739 ± 0.052
QAQLTAATNAKQ [PDC5 C-terminal 12 aa] | 0.731 ± 0.069
QDEDEDEDIEMQ [RAD3 C-terminal 12 aa] | 0.705 ± 0.057
QDYVKDRHHGLK [NUP157 C-terminal 12 aa] | 0.679 ± 0.043
QEPVIDPGTVVV [MRPL3 C-terminal 12 aa] | 0.676 ± 0.011
QEQQNLRQKQPN [YBL029C-A C-terminal 12 aa] | 0.7093 ± 0.0059
QESTLETTQKED [AFI1 C-terminal 12 aa] | 0.666 ± 0.018
QETAISVAKLFK [RPT6 C-terminal 12 aa] | 0.7079 ± 0.007
QFAQDTLKNFVQ [SAM35 C-terminal 12 aa] | 0.713 ± 0.03
QGRQGFNGGSRW [YNL208W C-terminal 12 aa] | 0.681 ± 0.028
QKARDFSRSVVH [ARO2 C-terminal 12 aa] | 0.698 ± 0.021
